Like-named read-outs stand apart in the source and are kept apart here.
What was measured:
Experiment in all cases: cell-based or functional assay
[1] = molecular target: APRIL+BAFF (15 nM APRIL+10 nM BAFF) in combination
[2] = molecular target: recombinant human APRIL (Tonbo Biosciences) (human) (UniProt O75888)
[3] = molecular target: APRIL+BAFF (15 nM APRIL+10 nM BAFF) in combination; remark: listed apart in the source

Sequence of recombinant human APRIL (Tonbo Biosciences) (human) (O75888 105-250 limits assumed): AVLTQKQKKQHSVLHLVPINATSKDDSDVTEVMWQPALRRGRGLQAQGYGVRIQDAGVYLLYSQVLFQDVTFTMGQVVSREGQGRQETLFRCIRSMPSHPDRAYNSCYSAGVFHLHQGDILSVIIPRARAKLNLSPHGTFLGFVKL

Binder	IC50 (pM) BAFF + APRIL [1]	IC50 (pM) APRIL [2]	IC50 (pM) BAFF + APRIL [3]
belimumab, anti-BAFF monoclonal antibody (antibody, INN chains, looked up, V domains shown) VH: QVQLQQSGAEVKKPGSSVRVSCKASGGTFNNNAINWVRQAPGQGLEWMGGIIPMFGTAKYSQNFQGRVAITADESTGTASMELSSLRSEDTAVYYCARSRDLLLFPHHALSPWGRGTMVTVSS VL: SSELTQDPAVSVALGQTVRVTCQGDSLRSYYASWYQQKPGQAPVLVIYGKNNRPSGIPDRFSGSSSGNTASLTITGAQAEDEADYYCSSRDSSGNHWVFGGGTELTVLG	> 100000 pM		
anti-APRIL mAb BION-1301 (antibody, INN chains, looked up, V domains shown) VH: QVQLVQSGAEVKKPGASVKVSCKASGYTFTDYTIHWVRQATGQGLEWMGWIYPLRGSINYAQKFQGRVTMTADKSISTVYMELSSLRSEDTAVYFCARHGAYYSNAFDYWGQGTLVTVSS VL: EIVMTQSPATLSVSPGERATLSCRASESVDNDGIRFLHWYQQKPGQAPRLLIYRASTRATGIPARFSGSGSRTEFTLTISSLQSEDFAVYYCQQSNKDPYTFGGGTKVEIK	> 100000 pM	4900 pM	

Second part, the binder after the results:

IC50 (pM) BAFF + APRIL [1]	IC50 (pM) APRIL [2]	IC50 (pM) BAFF + APRIL [3]	Binder
		1390 pM	26 TACI CRD2-Fc (TACI vTD SEQ ID NO:26, K77E/F78Y/Y102D; Fc fusion SEQ ID NO: 167) (Fc fusion) SLSCRKEQGEYYDHLLRDCISCASICGQHPKQCADFCENKLRSGSGGGGSEPKSSDKTHTCPPCPAPEAEGAPSVFLFPPKPKDTLMISRTPEVTCVVVDVSHEDPEVKFNWYVDGVEVHNAKTKPREEQYNSTYRVVSVLTVLHQDWLNGKEYKCKVSNKALPAPIEKTISKAKGQPREPQVYTLPPSRDELTKNQVSLTCLVKGFYPSDIAVEWESNGQPENNYKTTPPVLDSDGSFFLYSKLTVDKSRWQQGNVFSCSVMHEALHNHYTQKSLSLSPG
		7720 pM	atacicept (WT TACI-Fc sequences corresponding to atacicept, containing WT TACI 30-110; SEQ ID NO:132) (Fc fusion) AMRSCPEEQYWDPLLGTCMSCKTICNHQSQRTCAAFCRSLSCRKEQGKFYDHLLRDCISCASICGQHPKQCAYFCENKLRSEPKSSDKTHTCPPCPAPEAEGAPSVFLFPPKPKDTLMISRTPEVTCVVVDVSHEDPEVKFNWYVDGVEVHNAKTKPREEQYNSTYRVVSVLTVLHQDWLNGKEYKCKVSNKALPSSIEKTISKAKGQPREPQVYTLPPSRDELTKNQVSLTCLVKGFYPSDIAVEWESNGQPENNYKTTPPVLDSDGSFFLYSKLTVDKSRWQQGNVFSCSVMHEALHNHYTQKSLSLSPGK

Source: US20240279310A1
